According to patent US20230357348A1 (AstraZeneca / MedImmune, published 2023):
Starred links: 1 amine or outer side, 2 acyl side, 3 side chain; linkers in the order of their positions; H or OH if unused. Non-standard residues stand in square brackets, D forms with d. Groups on a side chain read outwards from the residue. No end group written: not given here. *: point of attachment. C20 diacid = O=C(O)CCCCCCCCCCCCCCCCCCC(=O)*; C18 diacid = O=C(O)CCCCCCCCCCCCCCCCC(=O)*; γGlu = O=C(O)[C@H](CCC(=O)[*:2])N[*:1]; αMeF = C[C@](N)(Cc1ccccc1)C(=O)O; AEEA = NCCOCCOCC(=O)O; Aib = CC(C)(N)C(=O)O

B1: Peptide 526 (peptide)
peptide: H[Aib]QGTFTSDVSK[αMeF]LDSERAK([AEEA-AEEA-γGlu-C18 diacid])DFVAWLEA[Aib]G-OH
modifications: N-terminus assumed
SMILES: CC(C)C[C@H](NC(=O)[C@H](Cc1c[nH]c2ccccc12)NC(=O)[C@H](C)NC(=O)[C@@H](NC(=O)[C@H](Cc1ccccc1)NC(=O)[C@H](CC(=O)O)NC(=O)[C@H](CCCCNC(=O)COCCOCCNC(=O)COCCOCCNC(=O)CC[C@H](NC(=O)CCCCCCCCCCCCCCCCC(=O)O)C(=O)O)NC(=O)[C@H](C)NC(=O)[C@H](CCCNC(=N)N)NC(=O)[C@H](CCC(=O)O)NC(=O)[C@H](CO)NC(=O)[C@H](CC(=O)O)NC(=O)[C@H](CC(C)C)NC(=O)[C@](C)(Cc1ccccc1)NC(=O)[C@H](CCCCN)NC(=O)[C@H](CO)NC(=O)[C@@H](NC(=O)[C@H](CC(=O)O)NC(=O)[C@H](CO)NC(=O)[C@@H](NC(=O)[C@H](Cc1ccccc1)NC(=O)[C@@H](NC(=O)CNC(=O)[C@H](CCC(N)=O)NC(=O)C(C)(C)NC(=O)[C@@H](N)Cc1c[nH]cn1)[C@@H](C)O)[C@@H](C)O)C(C)C)C(C)C)C(=O)N[C@@H](CCC(=O)O)C(=O)N[C@@H](C)C(=O)NC(C)(C)C(=O)NCC(=O)O
B2: Peptide 340 (peptide)
peptide: H[Aib]QGTFTSDYSK[αMeF]LDSRRAK([γGlu-C18 diacid])DFVQWLL[Aib]E-OH
modifications: N-terminus assumed
SMILES: CC(C)C[C@H](NC(=O)[C@H](Cc1c[nH]c2ccccc12)NC(=O)[C@H](CCC(N)=O)NC(=O)[C@@H](NC(=O)[C@H](Cc1ccccc1)NC(=O)[C@H](CC(=O)O)NC(=O)[C@H](CCCCNC(=O)CC[C@H](NC(=O)CCCCCCCCCCCCCCCCC(=O)O)C(=O)O)NC(=O)[C@H](C)NC(=O)[C@H](CCCNC(=N)N)NC(=O)[C@H](CCCNC(=N)N)NC(=O)[C@H](CO)NC(=O)[C@H](CC(=O)O)NC(=O)[C@H](CC(C)C)NC(=O)[C@](C)(Cc1ccccc1)NC(=O)[C@H](CCCCN)NC(=O)[C@H](CO)NC(=O)[C@H](Cc1ccc(O)cc1)NC(=O)[C@H](CC(=O)O)NC(=O)[C@H](CO)NC(=O)[C@@H](NC(=O)[C@H](Cc1ccccc1)NC(=O)[C@@H](NC(=O)CNC(=O)[C@H](CCC(N)=O)NC(=O)C(C)(C)NC(=O)[C@@H](N)Cc1c[nH]cn1)[C@@H](C)O)[C@@H](C)O)C(C)C)C(=O)N[C@@H](CC(C)C)C(=O)NC(C)(C)C(=O)N[C@@H](CCC(=O)O)C(=O)O
B3: Peptide 522 (peptide)
peptide: H[Aib]QGTFTSDVSK[αMeF]LDSERAK([AEEA-AEEA-γGlu-C18 diacid])DFVAWLEAGG-OH
modifications: N-terminus assumed
SMILES: CC(C)C[C@H](NC(=O)[C@H](Cc1c[nH]c2ccccc12)NC(=O)[C@H](C)NC(=O)[C@@H](NC(=O)[C@H](Cc1ccccc1)NC(=O)[C@H](CC(=O)O)NC(=O)[C@H](CCCCNC(=O)COCCOCCNC(=O)COCCOCCNC(=O)CC[C@H](NC(=O)CCCCCCCCCCCCCCCCC(=O)O)C(=O)O)NC(=O)[C@H](C)NC(=O)[C@H](CCCNC(=N)N)NC(=O)[C@H](CCC(=O)O)NC(=O)[C@H](CO)NC(=O)[C@H](CC(=O)O)NC(=O)[C@H](CC(C)C)NC(=O)[C@](C)(Cc1ccccc1)NC(=O)[C@H](CCCCN)NC(=O)[C@H](CO)NC(=O)[C@@H](NC(=O)[C@H](CC(=O)O)NC(=O)[C@H](CO)NC(=O)[C@@H](NC(=O)[C@H](Cc1ccccc1)NC(=O)[C@@H](NC(=O)CNC(=O)[C@H](CCC(N)=O)NC(=O)C(C)(C)NC(=O)[C@@H](N)Cc1c[nH]cn1)[C@@H](C)O)[C@@H](C)O)C(C)C)C(C)C)C(=O)N[C@@H](CCC(=O)O)C(=O)N[C@@H](C)C(=O)NCC(=O)NCC(=O)O
B4: Peptide 525 (peptide)
peptide: H[Aib]QGTFTSDVSK[αMeF]LDSERAK([AEEA-AEEA-γGlu-C18 diacid])DFVQWLEA[Aib]G-OH
modifications: N-terminus assumed
SMILES: CC(C)C[C@H](NC(=O)[C@H](Cc1c[nH]c2ccccc12)NC(=O)[C@H](CCC(N)=O)NC(=O)[C@@H](NC(=O)[C@H](Cc1ccccc1)NC(=O)[C@H](CC(=O)O)NC(=O)[C@H](CCCCNC(=O)COCCOCCNC(=O)COCCOCCNC(=O)CC[C@H](NC(=O)CCCCCCCCCCCCCCCCC(=O)O)C(=O)O)NC(=O)[C@H](C)NC(=O)[C@H](CCCNC(=N)N)NC(=O)[C@H](CCC(=O)O)NC(=O)[C@H](CO)NC(=O)[C@H](CC(=O)O)NC(=O)[C@H](CC(C)C)NC(=O)[C@](C)(Cc1ccccc1)NC(=O)[C@H](CCCCN)NC(=O)[C@H](CO)NC(=O)[C@@H](NC(=O)[C@H](CC(=O)O)NC(=O)[C@H](CO)NC(=O)[C@@H](NC(=O)[C@H](Cc1ccccc1)NC(=O)[C@@H](NC(=O)CNC(=O)[C@H](CCC(N)=O)NC(=O)C(C)(C)NC(=O)[C@@H](N)Cc1c[nH]cn1)[C@@H](C)O)[C@@H](C)O)C(C)C)C(C)C)C(=O)N[C@@H](CCC(=O)O)C(=O)N[C@@H](C)C(=O)NC(C)(C)C(=O)NCC(=O)O
B5: Peptide 523 (peptide)
peptide: H[Aib]QGTFTSDVSK[αMeF]LDSERAK([AEEA-AEEA-γGlu-C20 diacid])DFVAWLEAGG-OH
modifications: N-terminus assumed
SMILES: CC(C)C[C@H](NC(=O)[C@H](Cc1c[nH]c2ccccc12)NC(=O)[C@H](C)NC(=O)[C@@H](NC(=O)[C@H](Cc1ccccc1)NC(=O)[C@H](CC(=O)O)NC(=O)[C@H](CCCCNC(=O)COCCOCCNC(=O)COCCOCCNC(=O)CC[C@H](NC(=O)CCCCCCCCCCCCCCCCCCC(=O)O)C(=O)O)NC(=O)[C@H](C)NC(=O)[C@H](CCCNC(=N)N)NC(=O)[C@H](CCC(=O)O)NC(=O)[C@H](CO)NC(=O)[C@H](CC(=O)O)NC(=O)[C@H](CC(C)C)NC(=O)[C@](C)(Cc1ccccc1)NC(=O)[C@H](CCCCN)NC(=O)[C@H](CO)NC(=O)[C@@H](NC(=O)[C@H](CC(=O)O)NC(=O)[C@H](CO)NC(=O)[C@@H](NC(=O)[C@H](Cc1ccccc1)NC(=O)[C@@H](NC(=O)CNC(=O)[C@H](CCC(N)=O)NC(=O)C(C)(C)NC(=O)[C@@H](N)Cc1c[nH]cn1)[C@@H](C)O)[C@@H](C)O)C(C)C)C(C)C)C(=O)N[C@@H](CCC(=O)O)C(=O)N[C@@H](C)C(=O)NCC(=O)NCC(=O)O

Tests used:
Experiment in all cases: cell-based or functional assay
[1] = target: human GLP-1 receptor (hGLP-1R) (human, UniProt P43220 24-463)
human glucagon receptor = human glucagon receptor (human, UniProt P47871 26-477)
Sequence of human glucagon receptor (P47871 26-477): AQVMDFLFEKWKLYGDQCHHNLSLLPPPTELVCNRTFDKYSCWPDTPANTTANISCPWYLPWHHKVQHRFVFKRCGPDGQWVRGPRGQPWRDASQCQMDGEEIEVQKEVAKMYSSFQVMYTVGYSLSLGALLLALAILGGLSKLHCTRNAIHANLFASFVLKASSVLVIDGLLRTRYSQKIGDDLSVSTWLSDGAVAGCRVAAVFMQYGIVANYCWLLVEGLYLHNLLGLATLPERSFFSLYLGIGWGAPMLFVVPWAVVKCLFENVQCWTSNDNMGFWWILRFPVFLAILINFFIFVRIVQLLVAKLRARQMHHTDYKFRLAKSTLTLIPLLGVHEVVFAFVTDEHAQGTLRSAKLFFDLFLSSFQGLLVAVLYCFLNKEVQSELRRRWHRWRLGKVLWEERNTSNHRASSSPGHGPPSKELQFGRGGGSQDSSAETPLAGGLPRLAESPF

human GLP-1 receptor = human GLP-1 receptor (human, UniProt P43220 24-463)

Row | Binder | hGLP-1R EC50 (pM); cAMP production [1] [pM] | hGluc-R EC50 (pM), cAMP (human glucagon receptor) [pM] | hGLP-1R EC50 (pM), cAMP (human GLP-1 receptor) [pM]
1 | HXHGTFTSDVSKXLDSQAAQDFVXWIANT (Aib at 2; αMePhe at 13; K(γE-C18diacid)24; C-terminal amide) [Peptide 346] | 7320 |  | 
2 | H[Aib]QGTFTSDVSE[αMeF]LDSERAK([AEEA-AEEA-γGlu-C18 diacid])DFVRWLEAGG-OH (not fully specified) [Peptide 524] |  | > 24400 | 366
3 | H[Aib]QGTFTSDVSK[αMeF]LDSRAAKDFVQWIANT-NH2 (not fully specified (residue 20)) [Peptide 343] |  | 19600 | 198
4 | B1 |  | 690 | 194
5 | B2 |  | 94.7 | 312
6 | HXHGSXTSDVSKXLDSQAAQDFVXWIANT (Aib at 2; αMePhe at 6 and 13; K(O2Oc-O2Oc-γE-C18diacid)24; C-terminal amide) [Peptide 358] | 74.9 |  | 
7 | B3 |  | 6360 | 508
8 | B4 |  | 2450 | 177
9 | B5 |  | > 24700 | 615
